Patent US20070042345

Tested on: F2C intracellular calcium ion indicator protein (GAP43 palmitoylation signal - ECFP - two alpha-spectrin calpain sensitive sequences - EYFP)

purified µ-calpain (Calpain I, Calbiochem, California, U.S.A.)
Western blot for fragmented F2C after incubation with purified µ-calpain in Ca-EGTA buffer: fragmented F2C signal was not detected (data not shown)
